The stoichiometry N is the number of molecules, sites or subunits per partner or assembly.

For 1 substance, GLT-1 multimers as percent of total GLT-1, with co-expressed PS1, GLT-1 multimers as percent of total GLT-1, without PS1 and stoichiometry N results are on record in PMC10659539.

Values joined by “and” are separate entries in the source; they are usually repeats but may differ in a detail not shown here. Equal entries are not always repeated.

Assay [1] deals with GLT-1, transfected in HEK PS DKO cells (UniProt P31596). The experiment in a line: native gel or EMSA; Blue Native PAGE of HEK PS DKO cells transfected with GLT-1 and pcDNA3.1-GFP or wildtype PS1, lysed with digitonin 5%; blot with anti-GLT-1. A general note: A gel shift assay detects complexes by their altered migration in electrophoresis.
Assay [2] has the same target. Kind of assay: cross-linking; living HEK PS DKO cells transfected with GLT-1 and empty vector or wildtype PS1; 50 μM DSS in PBS−/− for 30 min at room temperature, quenched with 20 mM glycine; lysed in 1% NP-40 + 0.1% Triton-X; SDS-PAGE and blot with anti-GLT-1.

“GLT-1, transfected in HEK PS DKO cells (from UniProt P31596 1-573) (natural protein)”: in assay [1], the GLT-1 multimers as percent of total GLT-1, with co-expressed PS1 is 95.6%; the GLT-1 multimers as percent of total GLT-1, without PS1 amounted to 89.7%; the stoichiometry N was 2 and 3. Besides, in assay [2], the stoichiometry N was 2 and 3.
